A word on the kon: it is a measure of how fast the partners come together. The low end stands for slower complex formation, the high end for faster complex formation. One may read the EC50 (read off the curve) as the concentration at which the effect is half-maximal. By koff is commonly meant the rate constant with which the complex falls apart. Read a low koff as slow dissociation.

This note sets out measurements from patent publication US20230365711A1 (Hoffmann-La Roche, published 2023).

Residue numbers refer to the chain shown, from its start. Names and notes keep the numbering of the source.

The target in assay [1] is T1, huNABA-avi-his (hybrid protein N-A1-B3-A2: N and A1 domains of human BGP, B3 domain of human CEA, A2 domain … (human, biotinylated at the avi tag (in vivo, co-transfected biotin ligase))).
T1 construct: also called NABA-avi-his reagent; biotinylated NABA
T1 chain: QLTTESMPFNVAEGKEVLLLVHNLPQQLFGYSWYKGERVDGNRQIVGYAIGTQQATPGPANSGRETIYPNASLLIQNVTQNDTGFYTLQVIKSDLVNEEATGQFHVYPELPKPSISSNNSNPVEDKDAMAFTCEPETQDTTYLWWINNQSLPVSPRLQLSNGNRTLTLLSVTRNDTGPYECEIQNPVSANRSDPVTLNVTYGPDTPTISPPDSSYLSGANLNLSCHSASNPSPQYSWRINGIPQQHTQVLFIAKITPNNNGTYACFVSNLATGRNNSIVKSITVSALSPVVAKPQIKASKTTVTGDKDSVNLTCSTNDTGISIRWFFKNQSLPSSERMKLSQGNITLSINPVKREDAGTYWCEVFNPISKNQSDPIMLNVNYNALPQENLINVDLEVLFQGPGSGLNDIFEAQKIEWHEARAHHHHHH
As to the kind of experiment: Proteon SPR, antibody analyte on biotinylated NABA (Neutravidin chip); column Ka (M).

The target of assay [2] is T1, huNABA-avi-his (hybrid protein …). As to the kind of experiment: Proteon SPR, antibody analyte on biotinylated NABA (Neutravidin chip).
The target of assay [3] is T2, human carcinoembryonic antigen (CEA), membrane-bound on cells (human, UniProt P06731 35-685).
T2 construct: whole, on cells; also called CEACAM-5; CD66e
T2 sequence (looked up): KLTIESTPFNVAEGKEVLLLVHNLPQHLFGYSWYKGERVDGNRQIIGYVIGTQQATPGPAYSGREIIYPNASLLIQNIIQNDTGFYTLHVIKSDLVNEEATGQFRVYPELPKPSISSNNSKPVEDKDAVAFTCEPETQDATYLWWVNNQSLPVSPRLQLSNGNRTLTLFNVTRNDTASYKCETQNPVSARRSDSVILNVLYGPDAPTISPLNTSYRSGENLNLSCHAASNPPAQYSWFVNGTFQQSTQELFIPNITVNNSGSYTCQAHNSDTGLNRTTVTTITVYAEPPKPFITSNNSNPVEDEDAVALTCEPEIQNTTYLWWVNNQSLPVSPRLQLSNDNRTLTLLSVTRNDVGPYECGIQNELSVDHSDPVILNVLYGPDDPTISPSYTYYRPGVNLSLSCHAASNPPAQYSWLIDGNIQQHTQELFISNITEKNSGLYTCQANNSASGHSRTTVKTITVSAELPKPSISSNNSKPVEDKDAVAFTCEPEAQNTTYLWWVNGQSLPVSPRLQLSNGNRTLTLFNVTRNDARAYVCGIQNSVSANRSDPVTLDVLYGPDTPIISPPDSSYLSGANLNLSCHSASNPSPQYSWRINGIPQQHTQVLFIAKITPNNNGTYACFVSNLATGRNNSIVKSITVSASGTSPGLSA
Nature of the assay: FACS on MKN45 cells.

Assay [4] addresses T1, huNABA-avi-his (hybrid protein …). As to the kind of experiment: Proteon SPR, antibody analyte on biotinylated NABA (Neutravidin chip); column Ka (M). An excerpt:
(§1) Proteon (Biacore) sensorgrams were obtained for the binding of the combined framework and CDR-H3 variants to the CEA antigen-harbouring chimeric protein NABA. […] The precursor clone 5L1A10 and the parental antibody CH7A were included for direct comparison. All antibodies tested in this assay had 2F1 as the light chain FIG. 25.

For assay [5] the target is unchanged. Nature of the assay: Proteon SPR, antibody analyte on biotinylated NABA (Neutravidin chip).
Source text: as §1

Assay [6] deals with T2, human carcinoembryonic antigen (CEA), …. As to the kind of experiment: flow cytometry on MKN45 cells, IgG1/kappa. The method, then: An affinity matured heavy chain variable region construct, CH7A rF9, and an affinity matured light chain variable region construct, CL1A rH11, were paired with the parent light chain variable region construct and the heavy chain variable region construct, respectively, and with each other. All antibodies were converted into human IgG1/kappa and binding to the CEA-positive cell-line MKN45 was measured by flow cytometry. […] The matured light chain shifts the EC50 values to lower numbers, whereas the matured heavy chains (rF9 in FIG. 6, and rB9 in FIG. 15) shift the total fluorescence signal intensity in a flow-cytometry measurement. […] The combination of these two chains increases the affinity even further.

The target of assay [7] is T1, huNABA-avi-his (hybrid protein …). Nature of the assay: Proteon SPR, antibody analyte on biotinylated NABA (Neutravidin chip). The source says: (§2) Shown in FIG. 22 are Proteon (Biacore) sensorgrams obtained for the binding of the CDR-H3 antibody variants to the CEA antigen-harbouring chimeric protein NABA. […] The affinity matured precursor clone 5HFF12 and the parental antibody CH7A were included for direct comparison. All antibodies tested in this assay had 2F1 as the light chain. […] The relative affinity of each, measured in the bivalent form, is as follows: 5HFF12>CH7A (Y98A/D99Y)>CH7A (Y98A)>CH7A>CH7A (E102Q)>CH7A (D99Y)>CH7A (D99H)>CH7A (A103T)>CH7A (V101F)>CH7A (W95Y).

For assay [8] the target is unchanged. Nature of the assay: Proteon SPR, antibody analyte on biotinylated NABA (Neutravidin chip); column Ka (M).
Source text: as §2

The target is the same in assay [9]. As to the kind of experiment: Biacore on immobilized NABA-avi-his; Bivalent Affinity.
For assay [10] the target is unchanged. Nature of the assay: Biacore, Fab on immobilized NABA-avi-his; column Monovalent Affinity. For orientation: SPR reads the build-up and loss of mass on a sensor chip optically.
Assay [11] has the same target. As to the kind of experiment: Biacore, column Affinity, CDR-L1 and CDR-L2 rows; antigen not named on the sheet, NABA-avi-his per paragraph 230.

B1: anti-CEA antibody with heavy chain CH1A1 and light chain 2F1 (antibody, V domains shown)
VH: QVQLVQSGAEVKKPGASVKVSCKASGYTFTEFGMNWVRQAPGQGLEWMGWINTKTGEATYVEEFKGRVTFTLDTSTSTAYMELRSLRSDDTAVYYCARWDFYDYVEAMDYWGQGTTVTVSS
VL: DIQMTQSPSSLSASVGDRVTITCKASAAVGTYVAWYQQKPGKAPKLLIYSASYRKRGVPSRFSGSGSGTDFTLTISSLQPEDFATYYCHQYYTYPLFTFGQGTKLEIKR
notes: CH1A with M69F/T71L double point mutation; also called precursor clone CH1A1
B1: the kon in assay [1] was 81900 M⁻¹ s⁻¹. Besides, in assay [2], the Kd was 4.24 nM. Also, the “EC50 (read off the curve)” value in [3] is ~1 µg/mL.

B2: anti-CEA antibody with heavy chain CH1A1D and light chain 2F1 (antibody, V domains shown)
VH: B1 VH with A16E, S17T, V20I, F70M, L72T
VL: B1 VL
For B2, in assay [1], the kon was determined as 53100 M⁻¹ s⁻¹. In assay [2], this molecule registered a Kd of 9.28 nM. Also, the 50% effective concentration (EC50 (read off the curve)) in assay [3] is ~1 µg/mL.

B3: anti-CEA antibody with heavy chain CH1A1F and light chain 2F1 (antibody, V domains shown)
VH: B1 VH with F70M, L72T, M81L
VL: B1 VL
For the molecule B3, the kon in assay [1] was 70800 M⁻¹ s⁻¹. Also, the Kd in assay [2] worked out at 7.58 nM. The “EC50 (read off the curve)” value in assay [3] was ~1 µg/mL.

B4: CH1A1B (Y98A/D99Y) 2F1 (antibody, V domains shown)
VH: B1 VH with Q3K, V5Q, F70M, L72T, Y102A, D103Y
VL: B1 VL
In the case of B4, the kon in assay [4] was 711000 M⁻¹ s⁻¹. For the same molecule, the Kd in [5] is 0.507 nM.

B5: anti-CEA antibody with heavy chain CH1A1B and light chain 2F1 (antibody, V domains shown)
VH: B1 VH with Q3K, V5Q, F70M, L72T
VL: B1 VL
As to B5, the kon in assay [1] is 53700 M⁻¹ s⁻¹. This molecule had a Kd in [2] of 8.9 nM. Moreover, in assay [3], the “EC50 (read off the curve)” value was ~1 µg/mL.

B6: anti-CEA antibody with heavy chain CH1A1A and light chain 2F1 (antibody, V domains shown)
VH: B1 VH with L72T
VL: B1 VL
Regarding B6, the kon in assay [1] amounted to 81800 M⁻¹ s⁻¹. The molecule also had a Kd in [2] of 5.91 nM. Besides, the “EC50 (read off the curve)” value in [3] was ~1 µg/mL.

B7: anti-CEA antibody with heavy chain CH1A1C and light chain 2F1 (antibody, V domains shown)
VH: B1 VH with A9P, V11L, F70M, L72T
VL: B1 VL
B7 came in with a kon in [1] of 44900 M⁻¹ s⁻¹. This molecule registered a Kd in [2] of 13 nM. The “EC50 (read off the curve)” value in assay [3] is ~1 µg/mL.

B8: CH1A1A (Y98A/D99Y) 2F1 (antibody, V domains shown)
VH: B1 VH with L72T, Y102A, D103Y
VL: B1 VL
notes: also called CH1A1A (98/99); CH1A1A (Y98A/D99Y)x2F1
For B8, the kon in assay [4] was 628000 M⁻¹ s⁻¹. Besides, the Kd in assay [5] is 0.537 nM.

B9: antibody with affinity matured heavy chain variable region CH7A rF9 and affinity matured light chain variable region CL1A rH11 (antibody, V domains shown)
VH: QVQLVQSGSELKKPGASVKVSCKASGYTFTEYGMNWVRQAPGQGLEWMGWINTKSGEATYVEEFKGRFVFSLDTSVSTAYLQISSLKAEDTAVYYCARWDFYDYVEAMDYWGQGTTVTVSS
VL: DIQMTQSPSSLSASVGDRVTITCKASQTVSANVAWYQQKPGKAPKLLIYLASYRYRGVPSRFSGSGSGTDFTLTISSLQPEDFATYYCHQYYTYPLFTFGQGTKLEIK
notes: The suffix G2(1) is not explained; also called CH7ArF9 CL1A rH11; CH7Arf9, CL1A rH11G2(1)
As to B9, the “EC50 (read off the curve)” value in [6] was ~0.5 µg/mL.

B10: humanized PR1A3 antibody with heavy chain variable region CH7A and light chain variable region 2F1 (antibody, V domains shown)
VH: B9 VH with Y32F, S55T
VL: B1 VL
notes: Measured in the bivalent form; also called CH7Ax2F1; parental antibody CH7A
Turning to B10, the kon in assay [1] stood at 122000 M⁻¹ s⁻¹; in [4], 369000 M⁻¹ s⁻¹; in assay [8], 132000 M⁻¹ s⁻¹; in assay [9], 423000 M⁻¹ s⁻¹. Further, the Kd was 1.84 nM in assay [2], 1.07 nM in assay [7], 1.97 nM in assay [5] and 0.952 nM in assay [9]. The koff in assay [9] was determined as 0.00041 s⁻¹.

B11: antibody with affinity matured heavy chain variable region CH7A rF9 and parent light chain variable region CL1A (antibody, human IgG1, V domains shown)
VH: B9 VH
VL: B9 VL with T28N, S30G, A31T, L50S, R56S
notes: also called CH7A rF9, CL1A
In the case of B11, the 50% effective concentration (EC50 (read off the curve)) in assay [6] is ~0.7 µg/mL.

B12: 3A1 (Fab, V domains shown)
VH: B9 VH with Y32F, S55T
VL: B9 VL with Q27A, T28N, S30G, A31N, Y53N, Y55S, R56G
notes: also called pAC21 (3A1); 3A1 wt/lc
In assay [10], B12 yielded a Kd of 250 nM, a dissociation rate constant (koff) of 0.0117 s⁻¹ and a kon of 46800 M⁻¹ s⁻¹. The molecule further had a Kd in assay [11] of 250 nM.

B13: antibody with heavy chain CH7A (Y98A/D99Y) and light chain 2F1 (antibody, V domains shown)
VH: B9 VH with Y32F, S55T, Y102A, D103Y
VL: B1 VL
notes: Bivalent form; also called double mutant (Y98A/D99Y)
On to B13, for which the Kd in assay [7] amounted to 0.186 nM; in [5], 0.465 nM. Moreover, the kon in assay [4] came to 481000 M⁻¹ s⁻¹; in assay [8], 236000 M⁻¹ s⁻¹.
